# Results taken from the nanobody polyreactivity screen of Harvey et al. (2022).
# Assay: yeast display, Sf9 membrane polyspecificity reagent, FACS + sequencing; frameworks hold sequencing errors
# How it was run: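 Nanobodies from a synthetic yeast display library (Saccharomyces cerevisiae BJ5465), induced 36–48 hours with galactose, were stained 1 hour at 4 °C with 10% biotinylated, detergent-solubilized Sf9 membrane reagent, enriched on streptavidin microbeads, then FACS-sorted. Anti-HA (expression) and streptavidin (reagent binding) fluorescence set low and high (top ~1%) gates. Polyreactivity labels come from the gate of origin. Genes were colony-PCR amplified, MiSeq 2 × 250 sequenced and filtered by CDR length.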
row,Sequence,polyreactivity (PSR sort gate)
1,QVQLEESGGGFVQAGGRLRLSCAASGSIFQAYFMGWYRQAPGKERELVADISRSGGRTYYADSVKGRFTISRDNAKNTVYLQMNSLKPEDTGVYYCAADWRHLLYRGGLQYEYWGQGTQVTVSS,high polyreactivity
2,QVQLVESGGGLVQAGGSLRLSCAASGRTFYVNDMGWYRQAPGKERELVAAISYRGGSTYYADSVKGRFTISRDNAKNTVYLQMNSLKPEDTAVYYCAAELTYRYRFYYLYSMYYWGQGTQVTVSS,low polyreactivity
3,QVQLVESGGGLVQAGGSLRLSCAASGFIFPTNVMGWYRQAPGKEREFVASITWRGGGTYYADSVKGRFTISRDNAKNTVYVQMNSLKPEDTAVYYCAAGRSWSSYWKYDYWGQGTQVTVSS,low polyreactivity
4,QVQLVESGGGLVQAGGSLRLSCAASGFTFSNYTMGWYRQAPVKERELVARITTRGTSTYYADSVKGRFTISRDNAKNTVYLQMNSLKPEDTAVYYCNARARYPRGYEYDYWGQGTQVTVSS,high polyreactivity
5,QVQLVESGGGLVQAGGSLRLSCAASGRIFGRYAMGWYIQAPGKERELVAAISRSGGITYYADSVKGRFTISRDNAKNTVYLQMNSLKPEDTAVYYCAAYRAGNSYYPRLNYWGQGTQVTVSS,high polyreactivity
6,QVQLVESGGGLVQAGGSLRLSCAASGRIFGVNAMGWYRQAPGKERELVAAITRRGGSTYADSVKGRFTISRDNAKNTVYLQMNSLKPEDTAVYYCNAESYYGIFRYKYDYWGQGTQVTVSS,high polyreactivity
7,QVQLVESGGGLVQSGGTLRLSCAASGFTFYWYAMGWYRQAPGKEREMVAAITRGGRTYYEDSVKGRFTITRDNAKNTVYLQMNSLKPEDNAVYYCYAYVSWYRTVRTKYDYWGQGTQVTVSS,high polyreactivity
8,QVQLVESGGGLVQAGGSLRLSFADSGYNFPLYAMGWYIQAPGKERELVADINIGGASTYYADSVKGRFTISRDNAKNTFYLQMNSLKPEDTAVYSCAARDCYQRRQRRYDYWGQGTQVTVSS,low polyreactivity
9,QVQLVESGGGLVQAGGSLRLSCPASGSNLYPYAMGSSTQPPATEREMVATISYSVVSTYYAESVKGRFTISRDNAKNTVYLQMNSLKPEDTAVYYCADKSRSSKYVYWGQGTQVSVSS,high polyreactivity
10,QVQLVESGGFLVQAGGSHRLSCAASGFTFQSNSMVWYRQAPGKERELVATITYSGGRTYYADSVKGRFTISRDNAKNTVYLQMNSLKPEDTAVYSCAARLAPLYRTYYYWGQGTQVTVSS,low polyreactivity
11,QVQLVESGGGLVQAGGSLRLSCAASGSIFRGYAMGWYRQAPGTERELVAAITSSAGSTYYADSVKGRFTISRDNAKNTVYLQMNSLKPEDSAVYYCNKYPRASRRGFDYWGQGTQVTVSS,high polyreactivity
12,QVQLVESGGGLDQAGGRLPLTCAASGLIFYDNMGWYRHAPGKERELVAAISSSGGSTSYADSVKGRFTISRDNAKNTVFLQMICLKPEDTAVYYCAADSYPAYLGFVGFDYWGQGTIVTVSS,low polyreactivity
13,QVQLVESGGGLGQAGGSLRLSCAASGSTFQIYAMGWYREAPGKEWEFVAAITSSSSTNYADSVKGRFTISRDNAKNTVYLQMNSLKPEDTAVYYCAADVSWRSNWYDYWGQGTQVTVSS,low polyreactivity
14,QVQLVESGGGLVQAGGSLRLSCAASGFTFCQYVMGWYRQAPGKERELVAAINWSGGSTYYADSVKGRFTISRDNAKNTVYLQMNSLKPEDTAVYYCNAVKAPYLRYDYWGQGTQVTVSS,high polyreactivity
15,QVQVVESGGGLVQAGGSLRLSCAASGSIFSWNAMGWYRQAPGKERELVAAISKRGTSTYYADSVKGRFTISRDNAKNTVYLQMNSLKPEDTAVYYCAVSRIVDFGQKMYYWGQGTQVTVSS,high polyreactivity
16,QVQLVESGGGLVQAGGSLRLSCAASGFTFVRYAMGWYRQAPGKEREFVAAITWSGGGTYYADSVKGRFTISRDNAKNTVYLQMNSLKPEDTAVYYCAADRRAYGGGYWGQGTQVTVSS,high polyreactivity
17,QVQLVESGGGLVQAGGSLRLSCAASGSTFGYYAMGWYRQAPGKERELVAAITKRSGRTYYADSVKGRFTISRDNAKNTVYLQLNSLKPEDTAVYYCAARYTFDRWKFGYWGQGTQVTVSS,high polyreactivity
18,QVQLVESGGGLVQAGGSLRLICAASGRTFKDYAMGWNRQAPGKERELVADISWSGGDTYYADSVKGRFTISRDNAKNTVYLQMNSLKPEDTAVYYCAADWSWCDGEDYHFEYDYWGQGTQVTVSS,low polyreactivity
19,QVQHVESRGGLVQAGGSLRLSCAASGSTFDGNAMGWYRQAPGTETELVAGISYRGGSTYYADSVKGRFTISRDYAKNSVYLQMNRLKPEDTAVYYCAADDYVYWLFDYWGQGTQVTVSS,low polyreactivity
20,QVQLVESGGGLVQAGGSLRLSCAASGRIFRYNVMGWYRQPPGKERELVAAIRWSGGSTYYADSVKGRFTISRDNAKNTVYLQMNSLKPEDTAVYYCNTVGRWRGYDYWGQGTQVTVSS,high polyreactivity
21,QVQLVESGGGLVQAGGSLRLSCAASGSTLVYNGMVWYRQAPGKEREFVAAIRSNDGSTYYADSVKGRFTISRDNAKNTVYLQMNSLKPEDTAVYYCNNDVWDGYDWPEFDYWGQGTQVTVSS,low polyreactivity
22,QVQLVESGGGLVQAGGSLRLSCAASGSTFGRYDMGSYRQAPGKERELVAAISRSGGGTYYADSVKGRFTISRDNAKNTVYLQMNSLKPEDTAVYYCAADYRDYPDSAYYYWGQGTQVTVSS,low polyreactivity

row,Sequence,polyreactivity (PSR sort gate)
1,QVQLVESGGGLVQAGGSLRLSCAASGRIFQGYAMGWYRQAPGKERELVASIRTGGTTNYADSVKGRFTISRDNAKNTVYLQMTRLKPEDNAVYYCNSGYYSYYGRYYYWGQGTQVTVSS,high polyreactivity
2,QVQLVESGGGLVQAGGSLRLSCAASGNTYGYNAMGWYRQAPGKERELVASITWSGGSTYYADSVKGRFTISRDNAKNTVYLQMNSLKPEDTAVYYCNADVRYGRDHWGQGTQVTVSS,low polyreactivity
3,QVQLVESGGGLVQAGGSLRLSCAASGSIFWYYAMGWYRQAPGKERELVAGITRGGSTSYADSVKGRFTISRDNAKKTVYLQMNSLKPEDTAVYYCAKRNPYSRYGYWGQGTQVTVSS,high polyreactivity
4,QVQLVESGGGLVLAGGSLRLSCAASGSIFGGYAMGWYRPAPGKERELVAAISSGDSTYYADSVKGRFTISRDNAKNTVYLQINSLKPEDTAVYYCAAAFFARDRKRYNYWGQGTQVTVSS,high polyreactivity
5,QVQLVESGGGLVQAGGSLRLTCAASGSIFSLNVMGRYRQAPGKERELVATIRGRGTSTYYADSVKGRFTISRYNAKINVYLHMNSLKPEDTAVYYWAARGHGAYGYWGQGTQVTVSS,low polyreactivity
6,QVQLVESGGGLVQAGGSLRLSCAASGFTFLKNAMGWYRQAPGKERELVAAITSSGGRTYYADSVKGRFTISRDNAKNTVYLQMNSLKPEDTAVYFCIKGPLPGYDYWGQGTQVTVSS,high polyreactivity
7,QVQLVESGGGLVQAGGILRLSCAASGSIFAYYAMGWYRQAPGKERELVAAIDSGGGTSYADSVKGRFTISRDNAKNTVYLQMNRLKPEDTAVYYCNAAGYVVYYRIIAFGYWGQGTQVTVSS,low polyreactivity
8,QVQLVESGGGLVQAGGRLRISCAASGSTFYFNAMGWYRQAPGKERELVAAITRGGSTYADSVKGRFTISRDNAKYTVYLQMNSMKPEDTAVYYCNAVYGVYDFIYWGQGTQVTVSS,low polyreactivity
9,QVQLVESGGGLVQAGGSLRLSCAASGSIFLGYAMGWYRQAPGKERELVAAISWTGGSTYYADSVKGRFTISRDNAKNTVYLQMNSLTPEDTAVYYCAAEDQYGFDYWGQGTQVTVYS,high polyreactivity
10,QVQLVESGGGLVQAGGSLRLSCAASGSIFRVYGMGWHRQAPGKERELVAAITWSGGSTYYADSVKGRFTISRDNAKNTVYLQMNSLKPEDTAVSYCAARARPRYYRPPYDYWGQGTQVTVSS,high polyreactivity
11,QVQLVESGGGLVQAGGSLRLSCAASGSTFRFNAMGWYRQAPGKERELVAAITSTGSTYYADSVKGRFTISRDNAKNTVYLQMNSLKPEDTADYYCAATYPRYRATPRYYSWGQGTQVTVSS,high polyreactivity
12,QVQLVESGGGLVQAGGSLRLSCAASGITFPYYAMGWYRQAPGKERELVAAITRSGSSTYYADSVKGRFTISRDNAKNTVYLQMNSLKPEDTAVYYCAAKRGAGEDYWGQGTQVTVSS,high polyreactivity
13,QVQLVESGGGLVQAGGSLRLSCAASGFTFRKNAMGWYRQAPGKERELVAAIRGSAGSTYYADSVKGRFTISRDNAKNTVYLQMNSLKPEDTAVSYCATGGYPSLWDGYGYWGQGTQVTVSS,low polyreactivity
14,QVQLVESGGGLVQAGGSLRLSCAASGSIFDDYAMGWYRQAPGKERELVAAITSGGSTYYADSVKGRFTISRDNAKNTVYLQMTSLKPEDTAVYYRATRYHWSSTFAPVGAGRGGDSWGQGTQVTVSS,low polyreactivity
15,QVRLVESGGGLVQAGGSLRLSCAASGRTLFVYDMGWYRQAPGKERELVAAISTGDDTNYADSVKGRFTISRDNAKNTVYLQMNSLKPEDTAVYYCNALYYTYPYWGYPSDYNLDYWGQGTQVTVSS,low polyreactivity
16,QVQLVESGGGLVQAGGSLRLSCAASGFIFRPYTMGWYRQAPGKERELVAAITSGGSTYYADSVKGRFTISRDNAKNTVYLQMNSLKPEDTAVYYCAARYQLYRRGYDYWGQGTQVTVSS,high polyreactivity
17,QVQLVESGGGLVQAGGSLRLICAASGRTFRGYTMGWYRQAPGKERELVAAITWSGGSTYYADSVKGRFTISRDNAKNTVYLQMNSLKPEDTAVYYCAATKYLSFLYDYWGQGTLVTVSS,high polyreactivity
18,QVQLVESGGGLVQAGGSLRLSCAASGRIFRGNTMGWYRQAPGKERELVAAITRGGSTSYADSVKGRFTISRDNAKNTVNLQMNSLKPEDTAVYYCATRTHGEGTRRDSWGQGTQVTVSS,low polyreactivity
19,QVQLVESGGGLVQAGGSLRLSCAASGYTFDGYAMGRYRQAPGKERELVAAINSGGGTYYADSVKGRFTISRDNAKNTVYLQMNSLKPEDTAVYYCAKYTYDYWGQGTQVTVSS,low polyreactivity
20,QVQLVESGGGLVQAGGSLRLSCAASGIIFRKYAMGWYRQAPGKERELVAAISWRGGSTYYADSVKGRFTISRDNAKNTVYLQMNSLKPEDTAVYYCAAVAQITGYDYWGQGTQVTVSS,high polyreactivity
21,QVQLVESGGGLVQAGGSLRLSCAASGRTYRWYVMGWYIQAPGTERELVAAISQSGGSTYYADSVKGRFTISRDNAMNTVYLEMYSLKPEDTAVYYCNAYPRYGGYAYGRGDYWGQGTQVTVSS,high polyreactivity
